Source: article PMC7241075
Where “and” joins values, the source holds several entries; their conditions need not be identical. Equal entries are not always repeated.

Tests used:
[1] = target: Scolopendra viridicornis haemocyanin (Scolopendra viridicornis); assay: SEC; plasma (supernatant of haemolymph, 3300g, 30 min, 4°C) on Superose 6 3.2/300, isocratic Tris buffer with 5 mM CaCl2 and 5 mM MgCl2, pH 8.2 or 8.0 (methods), 0.1 ml min^-1; oligomer told from the retention volume
[2] = target: Scolopendra viridicornis haemocyanin (Scolopendra viridicornis); assay: negative-stain transmission electron microscopy; first SEC peak in TRIS stabilizing buffer, stained with 2% uranyl acetate, Jeol 1400Plus
[3] = target: Scolopendra subspinipes subspinipes haemocyanin (Scolopendra subspinipes subspinipes); assay: as above
[4] = target: Scolopendra subspinipes subspinipes haemocyanin (Scolopendra subspinipes subspinipes); assay: negative-stain transmission electron microscopy; Hc pellet from ultracentrifugation, 26-30 µg ml^-1, in 50 mM MES (pH 6.2, 6.6) or 50 mM TRIS-HCl (pH 7.2-8.5) with 5 mM CaCl2 and 5 mM MgCl2; particles counted as 3 × 6-mer or 1 × 6-mer
[5] = target: Scolopendra subspinipes subspinipes haemocyanin (Scolopendra subspinipes subspinipes); assay: SEC; plasma (supernatant of haemolymph, 3300g, 30 min, 4°C) on Superose 6 3.2/300, isocratic Tris buffer with 5 mM CaCl2 and 5 mM MgCl2, pH 8.2 or 8.0 (methods), 0.1 ml min^-1; oligomer told from the retention volume
[6] = target: Scolopendra subspinipes subspinipes haemocyanin (Scolopendra subspinipes subspinipes); assay: negative-stain transmission electron microscopy; first SEC peak in TRIS stabilizing buffer, stained with 2% uranyl acetate, Jeol 1400Plus; remark: listed apart in the source

stoichiometry N [2] | stoichiometry N [3] | stoichiometry N [4] | stoichiometry N [6] | Substance | stoichiometry N [1] | stoichiometry N [5]
36 and 18 | – | – | – | Scolopendra viridicornis haemocyanin (complex) | 36 | –
– | 6 | 18 and 6 | 18 | Scolopendra subspinipes subspinipes haemocyanin (complex) | – | 18
